Data from the Human Domainome abundance scans (Beltran et al. 2025).

B1: Histone-lysine N-methyltransferase SETD2, residues 2382 to 2430; numbered along this chain, Q9BYW2 (parent)
chain: SPPKPKTIVLPPNWKTARDPEGKIYYYHVITRQTQWDPPTWESPGDDAS

Variants of: B1
Test: abundance fitness (aPCA) (normalised: wild type 0, dead -1); higher = more abundant; growth selection in yeast, the domain comes from the species named
Settings: Homo sapiens

Abundance fitness of substitutions, site by site:
Q35: F -0.683; G -0.735; H -0.083; I -0.505; K -0.351; L -0.364; M -0.074; N -0.875; P -0.535; S -0.062; T -0.052; V -0.212; W -0.722; Y -0.489
W36: A -0.239; C -0.08; D -0.015; E -0.027; F 0.321; G -0.152; H 0.33; I 0.139; K -0.006; L -0.082; M -0.382; Q -0.139; R 0.139; S 0.171; T -0.05; V 0.083; Y 0.203
D37: A -0.049; C -0.07; E 0.049; F -0.68; I 0.005; K -0.061; L -0.159; M -0.184; N -0.298; P -0.48; Q -0.235; R -0.252; T 0.117; V 0.013; W -0.255; Y -0.314
P38: A -0.126; C -0.221; D -0.836; E -0.493; F -0.143; G -0.693; H -0.039; I -0.111; K -0.121; L -0.396; M -0.043; N -0.651; Q -0.255; R -0.251; T -0.398; V -0.108; W -0.184; Y -0.228
P39: A -0.918; C -0.812; E -1; G -1.04; H -0.748; I -0.835; L -0.892; M -0.908; N -0.391; Q -0.659; R -0.96; S -0.719; T -0.98; V -0.894; W -0.987
T40: A 0.15; C 0.151; D -0.342; E 0.12; F -0.251; G 0.064; H 0.155; I -0.629; L -0.071; M 0; N 0.045; P 0.017; Q 0.277; R -0.019; S 0.062; V 0.057; W -0.232; Y -0.123
W41: A 0.07; C 0.04; D 0.06; E 0.166; F 0.334; G 0.034; H 0.117; I 0.05; K 0.165; L 0.078; M 0.16; P -0.058; Q 0.249; R 0.091; S 0.195; V 0.077; Y 0.338
E42: A -0.148; C -0.303; D -0.504; F 0.124; G -0.053; K -0.074; L -0.412; M -0.457; N -0.173; P 0.087; Q -0.291; R -0.184; S 0.011; T -0.341; V -0.141; W -0.172
S43: A -0.048; C -0.471; D 0.078; E 0.193; F -0.375; G -0.15; H -0.237; I -0.095; K 0.145; L -0.064; M -0.102; N -0.369; P -0.321; Q 0.091; R -0.11; T -0.061; V -0.045; W -0.23; Y -0.263
P44: A -0.115; C -0.448; D -0.108; E -0.096; F -0.654; G -0.128; H 0.036; I -0.452; K -0.128; M -0.016; N -0.196; Q -0.067; R -0.031; S -0.166; T -0.103; V -0.263; W -0.283
